Substrate in the data set: O=C1NC(=O)C(=O)C(=O)N1
The data set is described as follows: Substrate specificity, NADPH consumption, wild-type TGR. In kind it is biochemical, Schistosoma mansoni. Particulars: pH 7.4; 25.0 °C.

[ ]: non-standard residue; d: D form. Sec = N[C@@H](C[SeH])C(=O)O

B1: wild-type TGR (SmTGR) (Schistosoma mansoni) (protein)
chain: MPPADGTSQWLRKTVDSAAVILFSKTTCPYCKKVKDVLAEAKIKHATIELDQLSNGSAIQKCLASFSKIETVPQMFVRGKFIGDSQTVLKYYSNDELAGIVNESKYDYDLIVIGGGSGGLAAGKEAAKYGAKTAVLDYVEPTPIGTTWGLGGTCVNVGCIPKKLMHQAGLLSHALEDAEHFGWSLDRSKISHNWSTMVEGVQSHIGSLNWGYKVALRDNQVTYLNAKGRLISPHEVQITDKNQKVSTITGNKIILATGERPKYPEIPGAVEYGITSDDLFSLPYFPGKTLVIGASYVALECAGFLASLGGDVTVMVRSILLRGFDQQMAEKVGDYMENHGVKFAKLCVPDEIKQLKVVDTENNKPGLLLVKGHYTDGKKFEEEFETVIFAVGREPQLSKVLCETVGVKLDKNGRVVCTDDEQTTVSNVYAIGDINAGKPQLTPVAIQAGRYLARRLFAGATELTDYSNVATTVFTPLEYGACGLSEEDAIEKYGDKDIEVYHSNFKPLEWTVAHREDNVCYMKLVCRKSDNMRVLGLHVLGPNAGEITQGYAVAIKMGATKADFDRTIGIHPTCSETFTTLHVTKKSGVSPIVSGC[Sec]G
modifications: not fully specified
In the case of B1, the Km (commonly the concentration of substrate that gives half-maximal velocity) is reported as 0.94 ± 0.09 mM; the catalytic constant (kcat) (in general, the number of substrate molecules converted per active site and unit of time at saturation) was 27.7 ± 0.8 s⁻¹.

(Values after PMC3658134.)
